Data published in patent US20220096655A1, “PLASMA POLYMER NANOPARTICLES CARRYING AGENTS” (THE HEART RESEARCH INSTITUTE LTD, priority 2019, published 2022).
Several values for one entry are separate records, joined by “and”; a condition that tells them apart may be missing. Equal values may be shown once.

Legend:
[1] = system: rat carotid model of vessel injury; test: Rat carotid injury and nanoP3 delivery model (neointima, endothelium, M2 macrophages); type: in vivo; settings: for repair of the damaged endothelium (immunostaining, von Willebrand factor): 14 days after injury; for vessel re-endothelialisation / healing (von Willebrand factor staining): 200 nm NP3, FIG. 8; for vascular occlusion (neointima formation percentage of cross-sectional lumen area): denuded injury roughly 60%
Method: (§1) Study approval was obtained from the Sydney Local Health District Animal Welfare Committee (protocol number 2017/006). Experiments were conducted in accordance with the Australian Code of Practice for the Care and Use of Animals for Scientific Purpose. Rats (Sprague Dawley, male, 7 weeks) were purchased from Laboratory Animal Service (NSW, Australia). Rats were given a single intramuscular injection of ketamine (75 mg/kg) and medetomidine (0.5 mg/kg) to induce anaesthesia. The common carotid artery was isolated and double ligations were spaced roughly 1 cm apart. A small incision at the distal end was made, through which microintraocular forceps (World Precision Instruments, USA) were inserted, expanded to their full width and rotated 360 degrees to injured the entire luminal surface area of the vessel. This was repeated 5 times before withdrawing the forceps, and inserting a 22G catheter into the same incision. Through the catheter, IL-4 or IL-10 bound nanoP3 solutions were injected at a concentration of 2×10^8 nanoP3 in a total volume of roughly 80 μl of RPMI media. The nanoP3 solutions were allowed to incubate for 2 minutes and then withdrawn completely from the vessel. The incision was sutured closed using a 9-0 nylon suture, and both ligations were undone to re-establish blood flow. The isolated vessel segments were then explanted 14 days later for pathological evaluation.
After 14 days in vivo, vessel explants were fixed in 4% PFA overnight and subjected to ethanol dehydrations prior to paraffin embedding. Embedded vessel segments were then sectioned in 5 μm thick slices in the longitudinal direction. M2 macrophage and luminal endothelium staining was conducted using anti-CD206 (Abcam, USA) and anti-VonWillebrand Factor (Sigma, USA) antibodies. Fluorescent imaging was conducted by using Alexa-fluor 594 secondary antibodies. Staining of neointima formation was conducted using hematoxylin & eosin (H&E) staining. Normalised hyperplasia was calculated as the total area of hyperplasia divided the area of the original vessel lumen.
Using a rat carotid model of vessel injury, the efficacy of NP3+IL-10, NP3+Sirolimus or NP3+Sulindac to treat cardiovascular pathology was determined in vivo. Carrier -free recombinant rat IL-10 (1.34 μg/10^9 nanoP3; R&D systems, USA), Sirolimus (2.50 μg/10^9 nanoP3; rapamycin, Sigma-Merck, USA), Sulindac (3.05 μg/10^9nanoP3; Sigma-Merck, USA), or a Cy7 fluorescent tag (5.03 μg/10^9 nanoP3; CF750 Antibody Label, Sigma-Merck, USA) were diluted in sterile water and conjugated to 2×10^9 nanoP3.
The rats were subjected to vessel injury as described in Example 3 except that through the catheter, IL-10, Sirolimus or Sulindac bound nanoP3 solutions were injected at a concentration of 2×10^8 nanoP3 (IL-10, 0.268 μg; Sirolimus, 0.5 μg; Sulindac 0.61 μg; Cy7, 1.01 μg), in a total volume of roughly 80 μl of RPMI media.

[2] = Interleukin surface binding to nanoP3 (fluorescence of Cy5 label in leftover washes); type: physicochemical; settings: ultra-pure water pH 6.5, room temperature; for maximum binding efficiency of nanoP3 to interleukin in solution: Cy5-tagged interleukin; for loading capacity, further increased loading: at lower binding efficiency
Method: Carrier free recombinant rat IL-4 and IL-10 (R&D systems, USA) were dissolved in phosphate buffered saline (PBS) at a stock concentration of 100 ng/μl. To establish binding kinetics, each interleukin was tagged with a Lightning-link Cy5 antibody label (Novus Biologicals, USA). For every 1×10^9 nanoP3 (200 nm diameter) in ultrapure water (Thermofisher, USA), either 1.42 μg of IL-4 or 1.32 μg of IL-10 was added. Additional water was added to reach a total reaction volume of 1 ml and left to incubate for a 1 h at room temperature. Binding kinetics were performed on a Clariostar monochromator microplate reader (BMG Labtech, Germany) using the leftover washes following 1 h incubations.
The binding efficiency of nanoP3 to IL-4 in solution was maximum at 99%, corresponding to a loading capacity of 0.5±0.01 μg/10^9 particles. […] The maximum binding efficiency of nanoP3 to IL-10 was 99.9%, representing a total mass loading capacity of 0.5±0.02 μg/10^9 particles. Further loading of IL-10 onto nanoP3 was observed up to 0.80±0.02 μg/10^9 particles corresponding to a binding efficiency of 40%. All experiments were performed in ultra-pure water (pH=6.5) at room temperature. The incubation time was 30 minutes.

[3] = system: Raw 246.7 mouse macrophage cells; test: M2 macrophage polarisation in vitro (SEM, confocal arginase-1 staining); type: cell-based; settings: 1×10^5 nanoP3/well, 24 hours; for expression of arginase-1 (ARG-1), confocal immunostaining: vs control and NP3 only; for M2 activation of macrophages (SEM spreading and surface roughness): vs untreated and NP3 only
Method: The inventors sought to investigate the effect of NP3+IL-4 on macrophage polarisation in vitro. Raw 246.7 mouse macrophage cells (ATCC, USA) were cultured at 5×10^3 cells/well in a 96 well plate. IL-4 bound nanoP3 was added into macrophage cultures at a concentration of 1×10^5 nanoP3/well. After 24 hours, macrophages were fixed in 4% paraformaldehyde prior to scanning electron microscopy (SEM) and confocal imaging. Confocal staining was performed using an Actin cytoskeletal stain (Abcam, USA) and an anti-arginase-1 antibody (Abcam, USA).
Raw 246.7 mouse macrophage cells (ATCC, USA) were cultured at 5×10^3 cells/well in a 96 well plate. IL-10 (1.34 μg/10^9 nanoP3) and Sulindac (3.05μg/10^9nanoP3) were bound to nanoP3 as described in Example 4.
NP3+IL-10 or NP3+Sulindac was added into macrophage cultures at a concentration of 1 x 10^5 nanoP3/well. After 24 hours, macrophages were fixed in 4% paraformaldehyde prior to scanning electron microscopy (SEM) and confocal imaging. Confocal staining was performed using an Actin cytoskeletal stain (Abcam, USA) and an anti-arginase-1 antibody (Abcam, USA).

[4] = system: rabbit model of iliac arterial injury; test: Rabbit iliac injury and nanoP3 delivery model; type: in vivo; settings: 200 nm NP3, over seven days
Method: Study approval was obtained from the University of Sydney Animal Ethics Committee (AEC) protocol 2019-1653. Experiments were conducted in accordance with the Australian Code of Practice for the Care and Use of Animals for Scientific Purpose. An incision (˜1cm length) was made in the middle of the inguinal skin and the right femoral artery exposed after the blunt dissection of the muscle layers. The artery was ligated on the distal end and above the ligation, a small incision made to allow a 5F sheath (Abbott, TREK Coronary Dilatation Catheter, 3.25 mm) to be inserted. The sheath was held in place with sutures (3-0, silk). A 0.014 inch guide wire was inserted through the sheath, retrograde into the abdominal aorta. A 3.25 mm angioplasty balloon catheter was then inserted over the guide wire and advanced into the aorta. The location of NP3 delivery and the surrounding vasculature was determined by intravenous injection of contrast fluid ISOVUE 370 or OMNIPAQUE (75.5 g/100 ml), 25%-50% (v/v) contrast/saline prior to angiography.
Denudation of the iliac artery was performed by inflating the balloon at the bifurcation of the abdominal aorta to 3.1 mm diameter and withdrawn to the femoral artery slowly, 3 times (1 min per denudation). Through the main incision, the same balloon was re-inserted into the injured iliac to the bifurcation and inflated to 6-8 atm to occlude proximal blood flow. Immediately after blood flow has been occluded, a IL-10 nanoP3 solution (3×10^8 total 2 ml) was delivered through the sheath, inflating the artery, and allowed to incubate for 2 minutes before aspirating remaining solution back through the sheath. The sheath was removed, the femoral artery permanently ligated by 3-0 silk suture, followed by removal of the sheath. The exposed area was closed by 3-0 silk suture with individual stiches and double layer sutures.

[5] = Tracking of IL-4 retention in the isolated vessel (Cy5 tag), rat carotid injury model; type: in vivo; settings: for IL-4 retention in the vessel after restoration of blood flow: 2 minutes incubation in isolated carotid
Method: A) Procedural workflow of vessel injury: 1. Microintraocular forceps are inserted into ligated/isolated carotid rat segments. 2. Forceps are expanded and rotated 360° to mimic balloon injury overexpansion injury/denudation. 3. Forceps are removed, and through the same incision a small gauge catheter is inserted. 4. NP3+IL-4 solutions are delivered through the catheter and are allowed to incubate in the isolated vessel for 2 minutes. 5. The incision is sutured, and blood flow is restored.
as §1

B1: IL-10: carrier free recombinant rat IL-10 (R&D systems), anti-inflammatory cytokine (protein, UniProt P29456 19-178, looked up)
Interleukin-10: SKGHSIRGDNNCTHFPVSQTHMLRELRAAFSQVKTFFQKKDQLDNILLTDSLLQDFKGYLGCQALSEMIKFYLVEVMPQAENHGPEIKEHLNSLGEKLKTLWIQLRRCHRFLPCENKSKAVEQVKNDFNKLQDKGVYKAMNEFDIFINCIEAYVTLKMKN
**Q.** With B1 as the molecule, how does the “repair of the damaged endothelium (immunostaining, von Willebrand factor)” value (“repair of the damaged endothelium” for short) [1] read?
**A.** absent

**Q.** And the “effect on vascular occlusion” value ([1]; two weeks)?
**A.** no significant effects

**Q.** What about the “binding efficiency at further increased loading” value [2] of the same molecule?
**A.** 40%

**Q.** What about the “loading capacity at maximum binding efficiency” value [2] of the same molecule?
**A.** 0.5±0.02 μg/10^9 particles

**Q.** And the “maximum binding efficiency of nanoP3 to interleukin in solution” value [2]?
**A.** 99.9% and 100%

**Q.** What about the “loading capacity, further increased loading” value [2] of the same molecule?
**A.** 0.80±0.02 μg/10^9 particles

B2: NP3+IL-10: recombinant rat IL-10 conjugated to 200 nm plasma polymer nanoparticles (nanoP3) (conjugate, UniProt P29456 19-178, looked up)
Interleukin-10: SKGHSIRGDNNCTHFPVSQTHMLRELRAAFSQVKTFFQKKDQLDNILLTDSLLQDFKGYLGCQALSEMIKFYLVEVMPQAENHGPEIKEHLNSLGEKLKTLWIQLRRCHRFLPCENKSKAVEQVKNDFNKLQDKGVYKAMNEFDIFINCIEAYVTLKMKN
modifications: conjugated to 200 nm plasma polymer nanoparticles
**Q.** For B2, which “expression of arginase-1 (ARG-1), confocal immunostaining” value [3] is on record?
**A.** significantly upregulated

**Q.** What about the “M2 activation of macrophages (SEM spreading and surface roughness)” value [3] of the same molecule?
**A.** causes M2 activation

**Q.** And the “incidence of thrombosis (CD31 staining)” value [4]?
**A.** significantly reduced

**Q.** What about the “neointimal hyperplasia / occlusion (H&E staining)” value (from here on “neointimal hyperplasia / occlusion”) ([4]; vs untreated controls) of the same molecule?
**A.** reduced hyperplasia

**Q.** What about the “vessel inflammation, infiltration of pro-inflammatory macrophages (CD68 staining)” value ([4]; vs untreated controls) of the same molecule?
**A.** reduces the infiltration of pro-inflammatory macrophages

**Q.** What about the “neointimal hyperplasia / occlusion” value ([4]; vs untreated controls, listed as IL-10+NP3) of the same molecule?
**A.** reduced hyperplasia

**Q.** What about the “neointimal hyperplasia / occlusion” value ([4]; vs untreated controls, listed as NP3+IL10) of the same molecule?
**A.** reduced occlusion

**Q.** What about the “vessel re-endothelialisation / healing (von Willebrand factor staining)” value [1] of the same molecule?
**A.** stimulate healing

**Q.** What about the “vessel re-endothelialisation / healing (von Willebrand factor staining)” value ([1]; listed as NP3 delivered IL-10) of the same molecule?
**A.** stimulates vessel healing

**Q.** And the “vessel inflammation/macrophage polarisation (CD206 co-staining with CD68)” value ([1]; 200 nm NP3, FIG. 9)?
**A.** promoting M2 macrophage polarisation

**Q.** What about the “neointimal hyperplasia (H&E staining)” value ([1]; 200 nm NP3, compared to freely delivered agents, FIG. 7) of the same molecule?
**A.** inhibition of neointimal hyperplasia

**Q.** What about the “repair of the damaged endothelium” value [1] of the same molecule?
**A.** restore full endothelium integrity

**Q.** What about the “presence of M2 macrophages in treated carotid segments (immunostaining, CD206)” value ([1]; 14 days, compared to denuded, NP3+IL-4 and free IL-10) of the same molecule?
**A.** significant increase

**Q.** What about the “vascular occlusion (neointima formation percentage of cross-sectional lumen area)” value ([1]; two weeks) of the same molecule?
**A.** ~20%

B3: IL-4: carrier free recombinant rat IL-4 (R&D systems), anti-inflammatory cytokine (protein, UniProt P20096 25-147, looked up)
Interleukin-4: CNDSPLREIINTLNQVTEKGTPCTEMFVPDVLTATRNTTENELICRASRVLRKFYFPRDVPPCLKNKSGVLGELRKLCRGVSGLNSLRSCTVNESTLTTLKDFLESLKSILRGKYLQSCTSMS
**Q.** For B3, which “IL-4 retention in the vessel after restoration of blood flow” value [5] is on record?
**A.** immediately washed away

**Q.** And the “binding efficiency at further increased loading” value [2]?
**A.** 53.1%

**Q.** What about the “loading capacity at maximum binding efficiency” value [2] of the same molecule?
**A.** 0.5±0.01 μg/10^9 particles

**Q.** And the “maximum binding efficiency of nanoP3 to interleukin in solution” value [2]?
**A.** 99% and 100%

**Q.** And the “loading capacity, further increased loading” value [2]?
**A.** 1.1±0.02 μg/10^9 particles

B4: NP3+IL-4: recombinant rat IL-4 conjugated to plasma polymer nanoparticles (nanoP3, 200 nm) (conjugate, UniProt P20096 25-147, looked up)
Interleukin-4: CNDSPLREIINTLNQVTEKGTPCTEMFVPDVLTATRNTTENELICRASRVLRKFYFPRDVPPCLKNKSGVLGELRKLCRGVSGLNSLRSCTVNESTLTTLKDFLESLKSILRGKYLQSCTSMS
modifications: conjugated to 200 nm plasma polymer nanoparticles
**Q.** Which “expression of arginase-1 (ARG-1), confocal immunostaining” value [3] does the source give for B4 here?
**A.** significantly upregulated

**Q.** And the “M2 activation of macrophages (SEM spreading and surface roughness)” value [3]?
**A.** increases spreading (top row) and surface roughness

**Q.** And the “M2 activation of macrophages (SEM spreading and surface roughness)” value ([3]; listed as nanoP3-IL4)?
**A.** causes M2 activation

**Q.** And the “repair of the damaged endothelium” value [1]?
**A.** restore full endothelium integrity

**Q.** And the “vascular occlusion (neointima formation percentage of cross-sectional lumen area)” value ([1]; two weeks)?
**A.** approximately 35%

**Q.** What about the “persistence of IL-4 at substantial levels in the vessel” value [5] of the same molecule?
**A.** ≥ 5 days

**Q.** And the “IL-4 retention in the vessel after restoration of blood flow” value [5]?
**A.** significantly retained
